Starred links: 1 amine or outer side, 2 acyl side, 3 side chain; linkers in the order of their positions; H or OH if unused. Positions of bridges follow the written chain, without caps; N, C: chain ends. Non-standard residues stand in square brackets, D forms with d. Primed or numbered codes have the meaning given here. PyrS2″ = (S)-3-amino-1-((pent-4-en-1-yloxy)carbonyl)pyrrolidine-3-carboxylic acid (stapling residue), C=CCCCOC(=O)N1CC[C@@](N[*:1])(C(=O)[*:2])C1; B5(4) = 2,2-bis(4-pentenyl)glycine = 2-amino-2-(pent-4-en-1-yl)hept-6-enoic acid (stitching residue), C=CCCCC(CCCC=C)(N[*:1])C(=O)[*:2]; B5(5) = 2,2-bis(4-pentenyl)glycine, 2-amino-2-(pent-4-en-1-yl)hept-6-enoic acid (stitching residue), C=CCCCC(CCCC=C)(N[*:1])C(=O)[*:2]; PyrS2 = (S)-3-amino-1-((pent-4-en-1-yloxy)carbonyl)pyrrolidine-3-carboxylic acid, C=CCCCOC(=O)N1CC[C@@](N[*:1])(C(=O)[*:2])C1; PyrS1 = (S)-3-amino-1-((but-3-en-1-yloxy)carbonyl)pyrrolidine-3-carboxylic acid, C=CCCOC(=O)N1CC[C@@](N[*:1])(C(=O)[*:2])C1; B5(3) = 2,2-bis(4-pentenyl)glycine (stitching residue), C=CCCCC(CCCC=C)(N[*:1])C(=O)[*:2]; B6 = 2-amino-2-(hex-5-en-1-yl)oct-7-enoic acid, C=CCCCCC(CCCCC=C)(N[*:1])C(=O)[*:2]; Phe(3-CONH2) = NC(=O)c1cccc(C[C@H](N)C(=O)O)c1; Phe(3-COOH) = N[C@@H](Cc1cccc(C(=O)O)c1)C(=O)O; Phe(4-CONH2) = NC(=O)c1ccc(C[C@H](N)C(=O)O)cc1; 2F3MeF = Cc1cccc(C[C@H](N[*:1])C(=O)[*:2])c1F; Phe(2-CF3) = N[C@@H](Cc1ccccc1C(F)(F)F)C(=O)O; Phe(2-CONH2) = NC(=O)c1ccccc1C[C@H](N)C(=O)O; Phe(3-Cl) = N[C@@H](Cc1cccc(Cl)c1)C(=O)O; Phe(4-Cl) = N[C@@H](Cc1ccc(Cl)cc1)C(=O)O; Bta = N[C@@H](Cc1csc2ccccc12)C(=O)O; Lys(iPr) = CC(C)NCCCC[C@H](N)C(=O)O; αAllylPro = C=CC[C@@]1(C(=O)O)CCCN1; tBuAla = CC(C)(C)C[C@H](N)C(=O)O; 3Thi = N[C@@H](Cc1ccsc1)C(=O)O; Cha = N[C@@H](CC1CCCCC1)C(=O)O; αMeP = C[C@@]1(C(=O)O)CCCN1; hSer = N[C@@H](CCO)C(=O)O; Aib = CC(C)(N)C(=O)O
Molecular target: full-length beta-Catenin (Uniprot ID P35222) (Homo sapiens (Human)) (UniProt P35222)
Assay: fluorescence polarization competition; peptide titrated against 10 nM full-length beta-catenin + 10 nM 5FAM-TCF4(10-53)

Row | Binder | IC50
1 | Ac-[αAllylPro]N[Cha][B5(5)]DQ[Lys(iPr)]AFN[PyrS2″]Q[Bta][hSer]-NH2 (staple 1-4, 4-11) [I-2171] | 10000 nM
2 | Ac-[αMeP]D[tBuAla][Aib]DDAAFQ[Aib][3Thi][Bta]H-NH2 (SMILES CC(=O)N1CCC[C@@]1(C)C(=O)N[C@@H](CC(=O)O)C(=O)N[C@@H](CC(C)(C)C)C(=O)NC(C)(C)C(=O)N[C@@H](CC(=O)O)C(=O)N[C@@H](CC(=O)O)C(=O)N[C@@H](C)C(=O)N[C@@H](C)C(=O)N[C@@H](Cc1ccccc1)C(=O)N[C@@H](CCC(N)=O)C(=O)NC(C)(C)C(=O)N[C@@H](Cc1ccsc1)C(=O)N[C@@H](Cc1csc2ccccc12)C(=O)N[C@@H](Cc1c[nH]cn1)C(N)=O) [I-2228] | 2140 nM
3 | Ac-[αAllylPro]N[Cha][B5(5)]DQ[Lys(iPr)]A[Phe(4-CONH2)]N[PyrS2″]F[Bta][hSer]-NH2 (staple 1-4, 4-11) [I-2174] | 10000 nM
4 | Ac-[αAllylPro]N[Cha][B5(5)]DQ[Lys(iPr)]AFN[PyrS2″][Phe(4-CONH2)][Bta][hSer]-NH2 (staple 1-4, 4-11) [I-2169] | 10000 nM
5 | Ac-[αAllylPro]N[Cha][B5(5)]DQ[Lys(iPr)]AFL[PyrS2″]F[Bta][hSer]-NH2 (staple 1-4, 4-11) [I-2165] | 441 nM
6 | Ac-[αAllylPro]N[Cha][B5(5)]DQ[Lys(iPr)]AFN[PyrS2″]Y[Bta][hSer]-NH2 (staple 1-4, 4-11) [I-2172] | 10000 nM
7 | Ac-[αAllylPro]N[Cha][B5(4)]DQ[Lys(iPr)]AFN[PyrS2″][Phe(2-CONH2)][Bta][hSer]-NH2 (staple 1-4, 4-11) [I-2168] | 212 nM
8 | Ac-[αAllylPro]N[Cha][B5(5)]DQ[Lys(iPr)]AFN[PyrS2″]N[Bta][hSer]-NH2 (staple 1-4, 4-11) [I-2170] | 10000 nM
9 | Ac-[αAllylPro]D[tBuAla][B6]D[Phe(3-COOH)]QAFL[PyrS2][Phe(2-CF3)][Bta]A-NH2 (staple 1-4, 4-11) [I-2515] | 1610 nM
10 | Ac-[αMeP]D[tBuAla][Aib]DDAAFQ[Aib][3Thi][Bta]HK-NH2 (SMILES CC(=O)N1CCC[C@@]1(C)C(=O)N[C@@H](CC(=O)O)C(=O)N[C@@H](CC(C)(C)C)C(=O)NC(C)(C)C(=O)N[C@@H](CC(=O)O)C(=O)N[C@@H](CC(=O)O)C(=O)N[C@@H](C)C(=O)N[C@@H](C)C(=O)N[C@@H](Cc1ccccc1)C(=O)N[C@@H](CCC(N)=O)C(=O)NC(C)(C)C(=O)N[C@@H](Cc1ccsc1)C(=O)N[C@@H](Cc1csc2ccccc12)C(=O)N[C@@H](Cc1c[nH]cn1)C(=O)N[C@@H](CCCCN)C(N)=O) [I-2231] | 5190 nM
11 | Ac-[αAllylPro]N[Cha][B5(5)]DQ[Lys(iPr)]AFL[PyrS2″][Phe(3-CONH2)][Bta][hSer]-NH2 (staple 1-4, 4-11) [I-2166] | 1590 nM
12 | Ac-[αAllylPro]N[Cha][B5(5)]DQ[Lys(iPr)]A[Phe(2-CONH2)]N[PyrS2″]F[Bta][hSer]-NH2 (staple 1-4, 4-11) [I-2173] | 3070 nM
13 | Ac-[αAllylPro]D[tBuAla][B6]D[Phe(3-COOH)]QAFL[PyrS2][Phe(2-CF3)][Bta]A-NH2 (staple 1-4, 4-11; also: one of three HPLC isomer compositions) [I-2516] | 209 nM

The next binders have a lower IC50 than those just listed; values first:

Row | IC50 | Binder
14 | 14 nM | Ac-[αAllylPro]D[tBuAla][B5(3)]D[Phe(3-COOH)]AAFL[PyrS2″][3Thi][Phe(3-Cl)]Q-NH2 (staple 1-4, 4-11) [I-2224]
15 | 8 nM | Ac-[αAllylPro]D[tBuAla][B5(3)]DDAAFQ[PyrS2″][3Thi][Bta]HK-NH2 (staple 1-4, 4-11; also: later eluting staple isomer) [I-2230]
16 | 19 nM | Ac-[αAllylPro]D[tBuAla][B5(5)]DDAAFN[PyrS2″][3Thi]WQ-NH2 (staple 1-4, 4-11) [I-2175]
17 | 84 nM | Ac-[αAllylPro]D[tBuAla][B5(3)]D[Phe(3-COOH)]AAFL[PyrS2″][2F3MeF][Phe(4-Cl)]S-NH2 (staple 1-4, 4-11) [I-2222]
18 | 199 nM | Ac-[αAllylPro]N[Cha][B5(4)]DQ[Lys(iPr)]AFN[PyrS2″]F[Bta][hSer]-NH2 (staple 1-4, 4-11) [I-2167]
19 | 47 nM | Ac-[αAllylPro]D[tBuAla][B5(3)]D[Phe(3-COOH)]QAFL[PyrS2″][2F3MeF][Phe(3-Cl)]A-NH2 (staple 1-4, 4-11) [I-2227]
20 | 61 nM | Ac-[αAllylPro]D[tBuAla][B6]D[Phe(3-COOH)]QAFL[PyrS2][Phe(2-CF3)][Bta]A-NH2 (staple 1-4, 4-11) [I-2517]
21 | 97 nM | Ac-[αAllylPro]D[tBuAla][B5(3)]D[Phe(3-COOH)]AAFL[PyrS2″][2F3MeF][Phe(3-Cl)]S-NH2 (staple 1-4, 4-11) [I-2226]
22 | 24 nM | Ac-[αAllylPro]D[tBuAla][B6]D[Phe(3-COOH)]QAFL[PyrS1][Phe(2-CF3)][Bta]A-NH2 (staple 1-4, 4-11) [I-2510]
23 | 50 nM | Ac-[αAllylPro]D[tBuAla][B5(3)]D[Phe(3-COOH)]QAFL[PyrS2″][2F3MeF][Phe(4-Cl)]A-NH2 (staple 1-4, 4-11) [I-2223]
24 | 94 nM | Ac-[αAllylPro]D[tBuAla][B6]D[Phe(3-COOH)]QAFL[PyrS1][Phe(2-CF3)][Bta]A-NH2 (staple 1-4, 4-11; not fully specified; printed as Ac-PL3-Asp-Npg-B6-Asp-3COOHF-Gln-Ala-Phe-Leu-PyrS1-2F3MeF-BztA-Ala-NH2) [I-2519]
25 | 6 nM | Ac-[αAllylPro]D[tBuAla][B5(3)]DDAAFQ[PyrS2″][3Thi][Bta]HK-NH2 (staple 1-4, 4-11; also: earlier eluting staple isomer) [I-2229]

From US20240116985A1, “STAPLED PEPTIDES AND METHODS THEREOF” (priority 2020, published 2024)
